Data from patent US20180016348A1.

Assays:
Test in all cases: cell-based or functional assay
[1] = molecular target: neuraminidase (NA) of H1N1 A/Brisbane/59/2007 (influenza A virus H1N1 A/Brisbane/59/2007)
[2] = molecular target: neuraminidase (NA) of H1N1 A/California/07/2009 (influenza A virus H1N1 A/California/07/2009)
[3] = molecular target: neuraminidase (NA) of H3N2 A/Perth/16/2009 (influenza A virus H3N2 A/Perth/16/2009)
[4] = molecular target: neuraminidase (NA) of H5N1 A/Vietnam/1194/2004 (NIBRG-14) (influenza A virus H5N1 A/Vietnam/1194/2004 (NIBRG-14))

B1: CR12042 (antibody, V domains shown)
VH: EVQLVESGAEVRKPGSSVKVSCTASGDTFSSYTITWVRQAPGQGLEWMGEIIPIFGTANYAQKFQGRVTLTADESTTTAYMDLSSLRSEDTAVYYCARGPDNHSDRYFYYGMDVWGQGTTVTVSS
VL: EIVLTQSPLSLPVTPGEPASISCRSSQSLLHSTGNNYLDWYLQKPGQSPQLLIYLGSNRASGVPDRFSGSGSGTDFTLKISRVEAEDVGVYYCMQALQTPRTFGQGTKVDIK
What does the source list for B1?
EC50 of neuraminidase inhibition (NA-XTD assay, whole virus) [1]: 0.11 µg/mL; IC50 of virus neutralization (VNA on MDCK cells) [2]: 0.26 µg/mL; EC50 of neuraminidase inhibition (NA-XTD assay, whole virus) [3]: 5.01 µg/mL; IC50 of virus neutralization (VNA on MDCK cells; one experiment) [3]: > 100 µg/mL; IC50 of virus neutralization (VNA on MDCK cells) [4]: 5.45 µg/mL
